Measured values taken from patent US8445633B2, “Peptide having bindability with adiponectin, analysis method utilizing same peptide, and analysis device utilizing same peptide” (Sharp Kabushiki Kaisha, priority 2010, dated 2013).

What was measured:
[1] = target: T1, adiponectin (Homo sapiens, UniProt Q15848); assay: Bond between adiponectin immobilized onto a microplate and biotin-tagged peptide, enzyme immunoassay (HRP-tagged streptavidin, TMB); format: binding; conditions: Example 2, FIG. 4; for absorbance at 450 nm: 1 mM peptide with C-terminal lysine tagged with biotin, compared with peptide of SEQ ID NO. 17 (Comparative Example 2); for bindability with adiponectin: conclusion from absorbance
T1 construct: purchased R&D Systems
T1 sequence (Q15848 19-244): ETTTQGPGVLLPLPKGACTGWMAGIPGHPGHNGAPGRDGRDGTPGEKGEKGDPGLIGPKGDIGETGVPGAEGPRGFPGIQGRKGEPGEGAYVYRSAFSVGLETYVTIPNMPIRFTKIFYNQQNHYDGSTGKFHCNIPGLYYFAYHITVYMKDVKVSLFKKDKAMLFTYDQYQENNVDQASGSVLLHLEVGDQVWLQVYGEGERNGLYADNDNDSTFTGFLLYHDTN
Procedure: As described below, the bond between adiponectin immobilized onto a microplate and each of peptides tagged with biotin (biotin-tagged peptide) was measured by using enzyme immunoassay.
First, peptides were prepared in such a manner that lysine was added to the C-terminal of each of peptides having amino-acid sequences represented by SEQ ID NOs: 14 and 15. Then, the amino group of a lysine side chain of each of the peptides thus prepared was tagged with biotin so that biotin-tagged peptides were prepared.
5 μg/mL adiponectin (R&D Systems) prepared with PBS was dispensed to wells of a 96-well microplate in an amount of 100 μL per well. Then, the peptides were incubated for 1 hour at 37° C. Adiponectin was thus immobilized in the wells. In order to inhibit nonspecific binding, a blocking solution (Protein-Free Blocking Buffer, PIERCE) was then added to the wells in an amount of 300 μL per well. Then, the peptides were incubated for 2 hours at room temperature. Then, the wells were washed three times with PBST (PBS containing 0.1% (v/v) Tween 20). Then, 1 mM biotin-tagged peptide was added to the wells in an amount of 100 μL per well. Then, the peptides were incubated for 1 hour at room temperature. Then, the wells were washed with PBST again.
Then, HRP-tagged streptavidin (R&D Systems) diluted with 200 parts of the blocking solution (Protein-Free Blocking Buffer, PIERCE) was added to the well in an amount of 100 μL per well. Then, the streptavidin was incubated for 1 hour at room temperature. Then, the wells were washed with PBST. Then, TMB (tetramethylbenzidine) was added to the wells in an amount of 100 μL per well so that they react with each other for 20 minutes. Then, the reaction was stopped by adding 1 M of HCL to the wells in an amount of 100 μL per well. Then, an absorbance at 450 nm was measured by use of a microplate reader (Bio-Rad).
The bond between a peptide having the amino-acid sequence represented by SEQ ID NO. 17 and adiponectin as in Example 2.

[2] = target: T1, adiponectin; assay: Bond between peptide spot-synthesized on cellulose membrane and adiponectin, sandwich enzyme immunoassay (HRP-tagged anti-adiponectin antibody, Amplex Red fluorescence); format: binding; conditions: Example 3, FIG. 5; for bindability with adiponectin: conclusion from fluorescent intensity; for fluorescent intensity in the synthesis spot: peptides with conservative substitution compared with parent peptides SEQ ID NOs: 8 and 9
From the text: In order to identify an amino-acid sequence having bindability with adiponectin, a peptide was synthesized on a cellulose membrane by use of a peptide synthesis device (Model MultiPep RS (Intavis AG)) utilizing a Fmoc-based peptide spot synthesis.
Immobilized on the cellulose membrane was polyethylene glycol having a terminal modified with an amino group. An Fmoc amino acid was bound with the amino group by using DIC (diisopropylcarbodiimide)/HOBt (hydroxybenzotriazole). After that, Fmoc was removed.
The cycle of the removal of Fmoc and the subsequent binding was repeated to synthesis a peptide. Then, N-terminals and side chains of all the peptides were deprotected. Thereby, peptides consisting of amino-acid sequences represented by SEQ. ID NOs: 1 to 15 were obtained.
The sandwich technique which is one of enzyme immunoassays was performed to measure the bond between each of the peptides thus synthesized and adiponectin.
First, a cellulose membrane was soaked in ethanol. Then, the cellulose membrane was continuously washed with phosphate buffered saline (PBS) (pH 7.4) so that ethanol contained in the cellulose membrane was replaced with PBS. In order that nonspecific binding is inhibited, the cellulose membrane was incubated overnight in a blocking solution (PBS containing 1% milk powder).
Then, the cellulose membrane was incubated for 1 hour in a blocking solution (PBS containing 1% milk powder) which contains 0.25 μg/mL human adiponectin (R&D Systems). Then, the cellulose membrane was washed with PBST (PBS containing 0.1% (v/v) Tween 20). Then, the cellulose membrane was incubated for 1 hour in a blocking solution containing […] anti-human adiponectin antibody (R&D Systems) which is tagged with HRP, and then washed with PBST five times.
After that, 100 μM fluorescent substrate (Amplex Red (Invitrogen)) containing 1 mM hydrogen peroxide was added to the cellulose membrane, and then they react with each other for 10 minutes. A fluorescent intensity in a synthesis spot was measured in such a manner that an […] wavelength of 595 nm of fluorescence from the fluorescent substrate was measured by a fluorescence imager (GE Healthcare) by exciting, with light of 540 nm, the fluorescent substrate in the synthesis spot. A bond strength of the peptide was worked out from the fluorescent intensity in the synthesis spot.
A peptide consist of the amino-acid sequence represented by SEQ ID NO. 16 was synthesized as in Example 1. Then, the bond between the synthesized peptide and adiponectin was measured as in Example 1.
Then, the bond between each of the synthesized peptides and adiponectin was measured as in Example 1.

| Substance | absorbance at 450 nm [1] | bindability with adiponectin [1] | bindability with adiponectin [2] | fluorescent intensity in the synthesis spot [2] |
| --- | --- | --- | --- | --- |
| 14 (ITPIHWVK; Adiponectin binding peptide) [compound 14] | significantly higher in absorbance | had the bindability with adiponectin | – | – |
| 15 (ILLPLRIN; Adiponectin binding peptide) [compound 15] | significantly higher in absorbance | had the bindability with adiponectin | – | – |
| 18 (MGSFVPY; Adiponectin binding peptide) [compound 18] | – | – | had the bindability with adiponectin | close to those of the peptides having the amino-acid sequences represented by SEQ ID NOs: 8 and 9 |
| 19 (KFATPKHR; Adiponectin binding peptide) [compound 19] | – | – | had the bindability with adiponectin | close to those of the peptides having the amino-acid sequences represented by SEQ ID NOs: 8 and 9 |
